{"source": "paper PMC7134557", "substrate": "Nc1ncnc2c1ncn2[C@@H]1O[C@H](COP(=O)(O)OP(=O)(O)OP(=O)(O)O)[C@@H](O)[C@H]1O", "assay": "purified protein", "data": [{"protein": "BaMV helicase-like domain (of BaMV replicase) (Bamboo mosaic virus) (protein) YSPDIERAAAFARDVMSNKTGAILPKQSHEWKTTLKRKCKLAPRQTLISVIHGAGGSGKSRALQEYMRNNKEDPIVTILPTNELRADWKAKLPAHDPDMFMTFENALLIPKGNVVIMDDYTKLPRGYIEAYVQNSPMLDLLILTGDPRQSEHFESAEGNTINDLSPSPVVFSAYARYYINATHRNNQDLANALGVYSEKQGKTRISVSNHIEDGRHTLVPSQIKQRNYVSMGRKTSTYAGCQGITASRVQVIIDNDTAKCSHQVLYTAFSRAADEIHFCNTMTDEKQFWAKVKCTPYLQAILNLTKEHSLPDP", "values": [{"measurement": "Km", "value": "148 ± 5", "unit": "µM"}, {"measurement": "kcat", "value": 82, "unit": "s⁻¹"}]}]}
